Numbering of substitutions follows the chain as printed. In names and notes the source's numbering stands.

The text below walks through data of patent US20110059015A1 (CONSEJO SUPERIOR DE INVESTIGACIONES CIENTIFICAS CSIC, published 2011).

For test [1], the target named is T1, BSA (Bos taurus, UniProt P02769).
T1 construct: commercial serum albumin; also called bovine serum albumin
Kind of test: ELISA, soluble Fab on BSA coated wells.

Test [2] deals with gp120 of HIV-1 MN strain (on virus) (HIV-1 (MN), UniProt P05877 32-513). Kind of test: cell-based or functional assay.
Test [3] has as its target T1, BSA. Nature of the test: ELISA, soluble Fab of the shuffled HC/LC pair on BSA coated wells.
Test [4] has as its target T1, BSA. Kind of test: ELISA, soluble mutant Fab on BSA coated wells.
Test [5] concerns the target T1, BSA. Kind of test: ELISA, Fab titration on BSA coated wells.
In test [6] the target is T1, BSA. Nature of the test: ELISA, soluble mutant Fab on BSA coated wells. The source holds these as a separate data set.
Test [7] deals with T1, BSA. Nature of the test: ELISA, soluble Fab on BSA coated wells. This is another data set of the same source.
For test [8], the target named is gp120 of HIV-1 SF-2 strain (on virus) (HIV-1 (SF-2), UniProt P03378 32-509). Nature of the test: cell-based or functional assay.
The target in test [9] is gp120 of HIV-1 RF strain (on virus) (HIV-1 (RF), UniProt P04579 32-519). Kind of test: cell-based or functional assay.

T1 sequence (P02769 25-607 limits assumed): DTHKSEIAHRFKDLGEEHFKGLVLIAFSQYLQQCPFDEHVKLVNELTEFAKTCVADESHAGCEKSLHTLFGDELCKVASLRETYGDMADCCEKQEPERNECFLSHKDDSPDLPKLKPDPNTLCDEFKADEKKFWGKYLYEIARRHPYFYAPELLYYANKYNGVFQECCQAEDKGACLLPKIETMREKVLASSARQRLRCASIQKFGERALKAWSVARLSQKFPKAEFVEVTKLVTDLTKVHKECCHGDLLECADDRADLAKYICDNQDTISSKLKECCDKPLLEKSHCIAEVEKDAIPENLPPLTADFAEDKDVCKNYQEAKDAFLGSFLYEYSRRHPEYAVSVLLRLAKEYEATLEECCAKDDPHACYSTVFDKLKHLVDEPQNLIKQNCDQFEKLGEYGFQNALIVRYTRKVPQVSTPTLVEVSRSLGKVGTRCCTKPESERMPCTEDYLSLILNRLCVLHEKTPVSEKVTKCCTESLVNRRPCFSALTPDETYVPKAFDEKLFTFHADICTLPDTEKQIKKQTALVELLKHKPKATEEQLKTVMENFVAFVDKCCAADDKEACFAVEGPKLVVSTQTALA

B1: Fab S20 (Fab, V domains shown)
VH: LESGGGVVQPGRSLRLSCSASGFSFRDYAMHWVRQAPGKGLEWVAFIWFDGSNERYADSVKGRFTITRDNPKNTLYLQMNSLRVEDTAVYYCVRRGGSILTGFHLDYWGQGTLVTVSS
VL: ELTQSPSSLSASVGDRVTITCRASQGIRDDLGWYQQKPGKAPKRLIYAASNLQSGVPSRFSGGGSGTEFTLTISSLQPEDFATYYCLQHNSYPLTFGGGTKVEIKR
notes: also called IgG Fab S20
On to B1, for which the binding result in the test with BSA [1] is recorded as “no binding (tested: not given on the sheet)”. In test [2], the “% neutralisation of HIV-1 MN, NPA in MT-4 cells, at 20 µg/ml Fab” value was 90%.

B2: S20/S8 (Fab, V domains shown)
VH: B1 VH
VL: B1 VL
notes: also called S20 heavy chain paired with S8 light chain
As to B2, in the test with BSA [3], the binding result is on record as “no binding (tested: not given on the sheet)”.

B3: S2095 P (Fab, V domains shown)
VH: B1 VH with R95P
VL: B1 VL
For the molecule B3, the binding result with BSA [4] is recorded as “no binding (tested: not given on the sheet)”.

B4: Fab S19 (Fab, V domains shown)
VH: B1 VH with S19A, R26S, D27S, Y28H, A29G
VL: B1 VL
notes: also called IgG Fab S19
As to B4, the binding result in the test with BSA [5] is “no binding (tested: about 10 µg/ml)”.

B5: Fab S8 HCDR3 mutant Arg95 to Asp (Fab, V domains shown)
VH: B1 VH with V7L, Q9K, R12G, S19A, S24T, R26S, D27S, R95D
VL: B1 VL
With B5, the binding result with BSA [6] was “no binding (tested: not given on the sheet)”.

B6: mutant Fab S895K (Fab, V domains shown)
VH: B1 VH with V7L, Q9K, R12G, S19A, S24T, R26S, D27S, R95K
VL: B1 VL
For the molecule B6, in the test with BSA [6], the binding result is recorded as “no binding (tested: not given on the sheet)”.

B7: mutant Fab S2095K (Fab, V domains shown)
VH: B1 VH with R95K
VL: B1 VL
With B7, in the test with BSA [4], the binding result is “no binding (tested: not given on the sheet)”.

B8: Fab S8 HCDR3 mutant Arg95 to Gly (Fab, V domains shown)
VH: B1 VH with V7L, Q9K, R12G, S19A, S24T, R26S, D27S, R95G
VL: B1 VL
As to B8, the binding result with BSA [6] is “no binding (tested: not given on the sheet)”.

B9: Fab S8 (Fab, V domains shown)
VH: B1 VH with V7L, Q9K, R12G, S19A, S24T, R26S, D27S
VL: B1 VL
notes: also called IgG Fab S8; S8 Fab
Turning to B9, the binding result with BSA [7] is “no binding (tested: not given on the sheet)”. In [8], the “% neutralisation, IRA in MT-2 cells, at 1 µg/ml Fab S8” value (from here on “% neutralisation … at 1 µg/ml Fab S8”) stood at 50% and the “% neutralisation, IRA in MT-2 cells, at 10 µg/ml Fab S8” value (“% neutralisation … at 10 µg/ml Fab S8” for short) was > 90%. In test [9], the “% neutralisation … at 1 µg/ml Fab S8” value was found to be 50% and the “% neutralisation … at 10 µg/ml Fab S8” value is > 90%. Also, in test [2], the “% neutralisation of HIV-1 MN, NPA in MT-4 cells, at 20 µg/ml Fab” value stood at 90%; the “% neutralisation … at 1 µg/ml Fab S8” value was found to be 50%; the “% neutralisation … at 10 µg/ml Fab S8” value is > 90%.
